From patent publication US20110065633A1, “ESTER-BASED PEPTIDE PRODRUGS” (INDIANA UNIVERSITY RESEARCH AND TECHNOLOGY CORPORATION, priority 2008, published 2011) come the findings set out here.

Test [1] has as its target T1, GLP-1 receptor (Homo sapiens, UniProt P43220). As to the kind of experiment: Luciferase-based reporter gene assay for cAMP detection, GLP-1 receptor. Format: cell-based. Set-up: expressed in transfected cells; host or cells: HEK293. Particulars: for Potency compared with native GLP-1: luciferase assay, in vitro.
Target sequence in this assay (P43220 24-463, species assumed): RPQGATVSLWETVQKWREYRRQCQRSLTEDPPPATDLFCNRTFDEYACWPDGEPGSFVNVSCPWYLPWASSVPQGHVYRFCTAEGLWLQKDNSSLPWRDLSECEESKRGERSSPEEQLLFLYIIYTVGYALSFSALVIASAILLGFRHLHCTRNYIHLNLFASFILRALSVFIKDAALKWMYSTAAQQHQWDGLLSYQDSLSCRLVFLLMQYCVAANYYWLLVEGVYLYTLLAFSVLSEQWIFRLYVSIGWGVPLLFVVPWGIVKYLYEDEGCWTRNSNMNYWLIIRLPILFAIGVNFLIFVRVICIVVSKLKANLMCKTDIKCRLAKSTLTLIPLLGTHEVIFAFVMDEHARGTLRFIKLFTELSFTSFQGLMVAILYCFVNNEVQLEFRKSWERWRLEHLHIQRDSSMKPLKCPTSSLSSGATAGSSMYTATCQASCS
The target in test [2] is T1, GLP-1 receptor. As to the kind of experiment: cell-based or functional assay.
Target sequence in this assay (P43220 24-463 limits assumed): as the sequence (P43220 24-463, species assumed) above
The target of test [3] is glucagon receptor (UniProt P47871). The experiment in a line: cell-based or functional assay.
glucagon receptor, sequence (P47871 26-477 limits assumed): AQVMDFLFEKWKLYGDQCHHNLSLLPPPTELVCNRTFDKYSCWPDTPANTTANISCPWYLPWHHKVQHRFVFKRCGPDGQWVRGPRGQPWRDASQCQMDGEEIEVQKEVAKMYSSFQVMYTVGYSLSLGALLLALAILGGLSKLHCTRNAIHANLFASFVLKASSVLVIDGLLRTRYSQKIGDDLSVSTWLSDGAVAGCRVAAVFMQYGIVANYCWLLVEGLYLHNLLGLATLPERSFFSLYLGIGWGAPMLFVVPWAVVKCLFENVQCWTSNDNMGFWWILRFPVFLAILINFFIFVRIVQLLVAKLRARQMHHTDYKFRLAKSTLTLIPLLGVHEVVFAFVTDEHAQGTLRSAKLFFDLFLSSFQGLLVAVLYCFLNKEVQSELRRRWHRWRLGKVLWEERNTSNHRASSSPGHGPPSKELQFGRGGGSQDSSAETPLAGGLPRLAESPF
For test [4] the target is unchanged. As to the kind of experiment: cell-based or functional assay. The source holds these as a separate data set.
Test [5] deals with diabetes-induced obesity (DIO) mice. The experiment in a line: Blood glucose after glucose injection in DIO mice. Particulars: for blood glucose after glucose injection compared with corresponding non-prodrug form: 2 nmol/kg intraperitoneally 15 min before […] glucose, FIGS. 12, 13; for blood glucose concentrations compared with vehicle control: 15 or 70 nmol/kg intraperitoneally 60 min before […] glucose, FIG. 15. It counts as in vivo. Here is the method:
Six groups of diabetes-induced obesity (DIO) mice (eight mice per group) having an initial average body weight of 49.5 g were intraperitoneally injected with 2 nmol/kg of a PBS vehicle control or one of Peptides A-E described below:
Fifteen minutes after injection with one of the compounds or with vehicle control (at time point 0), a 25% (w/v) glucose saline solution was injected at a dose of 1.5 g per kg of body weight. Blood glucose concentrations of the mice were measured at the time of injection of the compound or vehicle control, at the time of glucose injection, and at 15, 30, 60, and 120 minutes after glucose injection.
Blood glucose levels of the mice were measured as described in Example 5.
(§1) Nine groups of diabetes-induced obesity (DIO) mice (8 mice per group) having an initial average body weight of 56 g were intraperitoneally injected once and followed for one week with 15 or 70 nmol/kg of Peptides Y, Z, F-Peg, and G-Peg described below or PBS vehicle control.
Sixty minutes after injection with one of the peptides or with vehicle control (at time point 0), a 25% (w/v) glucose saline solution was injected at a dose of 1.5 g per kg of body weight. Blood glucose concentrations of the mice were measured at the time of injection of the peptide or vehicle control (at time point −60), at the time of glucose injection (at time point 0), and at 15, 30, 60, and 120 minutes after glucose injection.

For test [6] the test system is unchanged. As to the kind of experiment: Body weight and food intake of DIO mice over one week. Particulars: single injection 15 or 70 nmol/kg; for total efficacy as measured over a week study: prodrug versus non-prodrug; for total food intake: FIG. 17. Format: in vivo. As to the method:
as §1
The body weight of each mouse of each group was measured on 1, 3, 5, and 7 days after injection with the vehicle control or peptide. Total change in body weight was calculated by substracting the average body weight of a group at the time of injection with vehicle or peptide from the average body weight of the group seven days after injection. Food intake by each group of mice was measured during the course of the week as well. Total food intake was measured seven days after injection with vehicle control or peptide. […] The Ser11 substitution or the des-amino His7 reduces total efficacy.

Where no end group is shown, it is not given here. Side-chain parts run from the residue outwards. [ ]: non-standard residue; d: D form. The star is where a group is joined. Desaminohistidyl = O=C(CCc1c[nH]cn1)*; PLA = phenyl lactic acid; Aib = CC(C)(N)C(=O)O

Take “F^7,GLP(8-37): aa 7-37 of GLP-1 with the His at position 7 replaced with Phe (FAEGTFTSDVSSYLEGQAAKEFIAWLVKGRG; Glucagon-like peptide 1(7-37); UniProt P01275 98-128, looked up, variant H7F)”: the Agonist character entry in test [1] is “full agonist”. Further, the “potency of native GLP-1” value in test [1] (percent of the potency of native GLP / GLP-1) was found to be 10%.
On to G^5V^6-O-F^7,GLP(8-36)CEX (peptide), for which, in test [2], the % potency with respect to parent; before incubation amounted to 10.9%, the % potency with respect to parent; prodrug incubated in PBS for 24 hrs before the assay turned out to be 46% and the % potency with respect to parent; prodrug incubated in PBS for 168 hrs before the assay was 95.8%.
In test [3], “Glucagon (6-CEX) analog E9, E16K20(lactam) (peptide)” returned a Glucagon IC50 of 42 nM. This substance also yielded a GLP-1 EC50 in test [2] of 36 nM. In test [4], this substance came in with a Glu IC50 of 42 nM.
Take “Glucagon (6-CEX) analog E9, K12, E16 (peptide)”: the Glucagon IC50 in test [3] was 762 nM. This substance also came in with a Glu IC50 in test [4] of 762 nM.
Turning to “Glucagon (6-CEX) analog E9, K12E16(lactam) (peptide)”, the Glucagon IC50 in test [3] was 2010 nM. The same substance returned a GLP-1 EC50 in test [2] of 63 nM. Also, the Glu IC50 in test [4] is 2010 nM.
In test [3], “Glucagon (6-CEX) analog [PLA6, E9, E16K20(Lactam)] (peptide)” returned a Glucagon IC50 of 20 nM.
Substance “Glucagon (6-CEX) analog [PLA6, E9, K12E16(Lactam) (peptide)” gave a Glucagon IC50 in test [3] of 72 nM. In test [2], this substance registered a GLP-1 EC50 of 6 nM. In test [4], this substance registered a Glu IC50 of 72 nM.
In the case of “HAEGTFTSDVSSYLEGQAAKEFIAWLVKGRGKRNRNNIA [GLP-oxyntomodulin, GLP-oxyntomodulin chimeric peptide]”, in test [1], the “Potency compared with native GLP-1” value is recorded as “at least as potent as the native GLP-1 peptide”.
Take “HO-FAEGTFTSDVSSYLEGQAAKEFIAWLVKGXPSSGAPPPS [HO—F^7,GLP(8-36)-CEX]”: the “% potency with respect to parent” value in test [1] (Table 7, before incubation (0 hrs), parent drug as such) is reported as 100% (parent drug). In addition, the “Potency compared with native GLP-1” value in test [1] is on record as “at least as potent as the native GLP-1”.
HO-F^5F^6-O-F^7,GLP(8-36)-CEX (peptide): in test [2], the % potency with respect to parent; before incubation was 3.7% and the % potency with respect to parent; prodrug incubated in PBS for 24 hrs before the assay stood at 17.2%.
Take “H^7AEGTFTSDVSSYLEGQAAKEFIAWLVKGXPSSGAPPPS-amide [GLP(7-36)-CEX amide]”: in test [1], the “Potency compared with native GLP-1” value is reported as “approximately ten times more potent in vitro than the native GLP-1 sequence”.
“Peptide A: prodrug of Peptide B, dipeptide d-Phe-dPhe attached via the O-terminus ({dF-dF-PLA}-[Aib]EGTFTSDVSSYLEEQAAKEFIAWLVKGRPSSGAPPPS-NH2; also: PLA bonded to D-Phe via an ester bond)”: in test [5], the “blood glucose after glucose injection compared with corresponding non-prodrug form” value is given as “higher than the blood glucose levels of mice injected with the corresponding non-prodrug forms”.
For “Peptide C: prodrug of Peptide B, dipeptide d-Phe-d-Val attached via the O-terminus ({dF-dV-PLA}-[Aib]EGTFTSDVSSYLEEQAAKEFIAWLVKGRPSSGAPPPS-NH2; also: PLA bonded to D-Val via an ester bond)”, the “blood glucose after glucose injection compared with corresponding non-prodrug form” value in test [5] is “higher than the blood glucose levels of mice injected with the corresponding non-prodrug forms”.
For the substance “Peptide E: prodrug of Peptide D, d-Phe-d-Val ester-linked to Ser at position 11 (H[Aib]EGS([dV-dF])FTSDVSSYLEEQAAKEFIAWLVKGRPSSGAPPPS-NH2; N-terminus assumed; SMILES CC[C@H](C)[C@H](NC(=O)[C@H](Cc1ccccc1)NC(=O)[C@H](CCC(=O)O)NC(=O)[C@H](CCCCN)NC(=O)[C@H](C)NC(=O)[C@H](C)NC(=O)[C@H](CCC(N)=O)NC(=O)[C@H](CCC(=O)O)NC(=O)[C@H](CCC(=O)O)NC(=O)[C@H](CC(C)C)NC(=O)[C@H](Cc1ccc(O)cc1)NC(=O)[C@H](CO)NC(=O)[C@H](CO)NC(=O)[C@@H](NC(=O)[C@H](CC(=O)O)NC(=O)[C@H](CO)NC(=O)[C@@H](NC(=O)[C@H](Cc1ccccc1)NC(=O)[C@H](COC(=O)[C@H](NC(=O)[C@H](N)Cc1ccccc1)C(C)C)NC(=O)CNC(=O)[C@H](CCC(=O)O)NC(=O)C(C)(C)NC(=O)[C@@H](N)Cc1c[nH]cn1)[C@@H](C)O)C(C)C)C(=O)N[C@@H](C)C(=O)N[C@@H](Cc1c[nH]c2ccccc12)C(=O)N[C@@H](CC(C)C)C(=O)N[C@H](C(=O)N[C@@H](CCCCN)C(=O)NCC(=O)N[C@@H](CCCNC(=N)N)C(=O)N1CCC[C@H]1C(=O)N[C@@H](CO)C(=O)N[C@@H](CO)C(=O)NCC(=O)N[C@@H](C)C(=O)N1CCC[C@H]1C(=O)N1CCC[C@H]1C(=O)N1CCC[C@H]1C(=O)N[C@@H](CO)C(N)=O)C(C)C)”, the “blood glucose after glucose injection compared with corresponding non-prodrug form” value in test [5] is recorded as “higher than the blood glucose levels of mice injected with the corresponding non-prodrug forms”.
For the substance “Peptide F-Peg: Peptide F analog with Cys at 30 covalently linked to a 40 kDa PEG ([Desaminohistidyl]SEGTFTSDVSSYLEEQAAKEFIC(PEG 40 kDa)WLVKGRPSSGAPPPS-NH2)”, the “blood glucose concentrations compared with vehicle control” value in test [5] is given as “less as compared to the blood glucose levels of mice injected with vehicle control”. The “total efficacy as measured over a week study” value in test [6] is on record as “comparable”. For the same substance, the total food intake result in test [6] (seven days) is reported as “decreased”.
The corresponding values for “Peptide G-Peg: pegylated prodrug, d-Phe-d-Val ester-linked to the Ser at position 8 ([Desaminohistidyl]S([dV-dF])EGTFTSDVSSYLEEQAAKEFIC(PEG 40 kDa)WLVKGRPSSGAPPPS-NH2)” are “less as compared to the blood glucose levels of mice injected with vehicle control”, “comparable” and “decreased”.
“Peptide G: prodrug of Peptide F, d-Phe-dVal ester-linked to the Ser at position 2 of Peptide F ([Desaminohistidyl]S([dV-dF])EGTFTSDVSSYLEEQAAKEFIAWLVKGRPSSGAPPPS-NH2; SMILES CC[C@H](C)[C@H](NC(=O)[C@H](Cc1ccccc1)NC(=O)[C@H](CCC(=O)O)NC(=O)[C@H](CCCCN)NC(=O)[C@H](C)NC(=O)[C@H](C)NC(=O)[C@H](CCC(N)=O)NC(=O)[C@H](CCC(=O)O)NC(=O)[C@H](CCC(=O)O)NC(=O)[C@H](CC(C)C)NC(=O)[C@H](Cc1ccc(O)cc1)NC(=O)[C@H](CO)NC(=O)[C@H](CO)NC(=O)[C@@H](NC(=O)[C@H](CC(=O)O)NC(=O)[C@H](CO)NC(=O)[C@@H](NC(=O)[C@H](Cc1ccccc1)NC(=O)[C@@H](NC(=O)CNC(=O)[C@H](CCC(=O)O)NC(=O)[C@H](COC(=O)[C@H](NC(=O)[C@H](N)Cc1ccccc1)C(C)C)NC(=O)CCc1c[nH]cn1)[C@@H](C)O)[C@@H](C)O)C(C)C)C(=O)N[C@@H](C)C(=O)N[C@@H](Cc1c[nH]c2ccccc12)C(=O)N[C@@H](CC(C)C)C(=O)N[C@H](C(=O)N[C@@H](CCCCN)C(=O)NCC(=O)N[C@@H](CCCNC(=N)N)C(=O)N1CCC[C@H]1C(=O)N[C@@H](CO)C(=O)N[C@@H](CO)C(=O)NCC(=O)N[C@@H](C)C(=O)N1CCC[C@H]1C(=O)N1CCC[C@H]1C(=O)N1CCC[C@H]1C(=O)N[C@@H](CO)C(N)=O)C(C)C)”: the “blood glucose after glucose injection compared with corresponding non-prodrug form” value in test [5] is given as “higher than the blood glucose levels of mice injected with its corresponding non-prodrug form”.
Consider “Peptide Y: GLP-1 with AIB at 8, Glu at 22, Cys at 30 linked to 40 kDa PEG, Exendin 4 extension (H[Aib]EGTFTSDVSSYLEEQAAKEFIC(PEG 40 kDa)WLVKGRPSSGAPPPS-NH2)”, for which the “blood glucose concentrations compared with vehicle control” value in test [5] is on record as “less as compared to the blood glucose levels of mice injected with vehicle control”. Moreover, in test [6] (seven days), the total food intake result is on record as “decreased”. Further, the “potency in decreasing appetite and decreasing body weight” value in test [6] (seven days, FIGS. 16, 17) was “most potent of the four peptides”.
Regarding “Peptide Z: pegylated (40 kDa) GLP-1-based prodrug, d-Phe-d-Val ester-linked to Ser at position 11 (H[Aib]EGS([dV-dF])FTSDVSSYLEEQAAKEFIC(PEG 40 kDa)WLVKGRPSSGAPPPS-NH2)”, the “blood glucose concentrations compared with vehicle control” value in test [5] is on record as “less as compared to the blood glucose levels of mice injected with vehicle control”. In addition, in test [6] (seven days), the total food intake entry is recorded as “decreased”.
